Test results from the supplement of paper PMC9112550, “Optimization of the antimicrobial peptide Bac7 by deep mutational scanning” (BMC Biology, 2022).

The sequences below were run on Escherichia coli TOP10 (assay: shrunken log2 fold change of peptide-encoding DNA abundance (4.5 h post-induction vs induction); higher = less antimicrobial activity (less host growth inhibition)). Settings: time post-induction: 4.5 h; library: site-saturation at positions 5, 18, 19, 20.
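Note: peptides expressed intracellularly from a pBAD plasmid library in pooled LB shake-flask culture, induced with 0.3% L-arabinose, DNA abundance read by NGS, three biological replicates, DESeq2 with apeglm shrinkage.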

Q: How did the “shrunken log2 fold change” value turn out when RRIRCRPPRLPRPRPRPNGAPRP was run?
A: -0.0129

Q: With RRIRVRPPRLPRPRPRPVKIPRP as the sequence, how does the “shrunken log2 fold change” value read?
A: -0.29

Q: With RRIRKRPPRLPRPRPRPGSKPRP as the sequence, how does the “shrunken log2 fold change” value read?
A: -0.0334

Q: RRIRIRPPRLPRPRPRPKNAPRP was tested. Which “shrunken log2 fold change” value did it give?
A: -0.107

Q: Which “shrunken log2 fold change” value does the source give for RRIRKRPPRLPRPRPRPNFWPRP here?
A: -0.152

Q: RRIRKRPPRLPRPRPRPHWNPRP was tested. Which “shrunken log2 fold change” value did it give?
A: -0.296

Q: RRIRCRPPRLPRPRPRPPDYPRP was tested. Which “shrunken log2 fold change” value did it give?
A: 0.0368

Q: With RRIRLRPPRLPRPRPRPDMRPRP as the sequence, how does the “shrunken log2 fold change” value read?
A: -0.0825

Q: For RRIRERPPRLPRPRPRPAHWPRP, which “shrunken log2 fold change” value is on record?
A: 0.339

Q: With RRIRVRPPRLPRPRPRPFPMPRP as the sequence, how does the “shrunken log2 fold change” value read?
A: -0.35

Q: RRIRIRPPRLPRPRPRPRMHPRP was tested. Which “shrunken log2 fold change” value did it give?
A: -0.0356

Q: With RRIRHRPPRLPRPRPRPPCHPRP as the sequence, how does the “shrunken log2 fold change” value read?
A: -0.253

Q: RRIRNRPPRLPRPRPRPDWNPRP was tested. Which “shrunken log2 fold change” value did it give?
A: -0.212

Q: With RRIRARPPRLPRPRPRPGIHPRP as the sequence, how does the “shrunken log2 fold change” value read?
A: 0.37

Q: RRIRMRPPRLPRPRPRPPTYPRP was tested. Which “shrunken log2 fold change” value did it give?
A: 0.306

Q: For RRIRARPPRLPRPRPRPILCPRP, which “shrunken log2 fold change” value is on record?
A: 0.165

Q: RRIRDRPPRLPRPRPRPVEYPRP was tested. Which “shrunken log2 fold change” value did it give?
A: 0.0163

Q: With RRIRSRPPRLPRPRPRPAMQPRP as the sequence, how does the “shrunken log2 fold change” value read?
A: -0.173

Q: How did the “shrunken log2 fold change” value turn out when RRIRDRPPRLPRPRPRPNRYPRP was run?
A: -0.0973

Q: How did the “shrunken log2 fold change” value turn out when RRIRVRPPRLPRPRPRPTQFPRP was run?
A: 0.203

Q: How did the “shrunken log2 fold change” value turn out when RRIRGRPPRLPRPRPRPYECPRP was run?
A: -0.075

Q: How did the “shrunken log2 fold change” value turn out when RRIRIRPPRLPRPRPRPLHMPRP was run?
A: -0.571

Q: RRIRSRPPRLPRPRPRPPYSPRP was tested. Which “shrunken log2 fold change” value did it give?
A: -0.379

Q: For RRIRSRPPRLPRPRPRPRLKPRP, which “shrunken log2 fold change” value is on record?
A: -0.0978

Q: For RRIRWRPPRLPRPRPRPINCPRP, which “shrunken log2 fold change” value is on record?
A: -0.889

Q: Which “shrunken log2 fold change” value does the source give for RRIRLRPPRLPRPRPRPPRLPRP here?
A: 0.46

Q: With RRIRQRPPRLPRPRPRPSVIPRP as the sequence, how does the “shrunken log2 fold change” value read?
A: -0.656

Q: Which “shrunken log2 fold change” value does the source give for RRIRMRPPRLPRPRPRPAMQPRP here?
A: 0.404

Q: For RRIRWRPPRLPRPRPRPKQWPRP, which “shrunken log2 fold change” value is on record?
A: 0.155

Q: For RRIRPRPPRLPRPRPRPGDYPRP, which “shrunken log2 fold change” value is on record?
A: -0.0215

Q: RRIRLRPPRLPRPRPRPNRHPRP was tested. Which “shrunken log2 fold change” value did it give?
A: -0.312

Q: RRIRPRPPRLPRPRPRPYMAPRP was tested. Which “shrunken log2 fold change” value did it give?
A: -1.07

Q: For RRIRFRPPRLPRPRPRPYAEPRP, which “shrunken log2 fold change” value is on record?
A: -0.823

Q: For RRIRHRPPRLPRPRPRPRCFPRP, which “shrunken log2 fold change” value is on record?
A: -0.143

Q: Which “shrunken log2 fold change” value does the source give for RRIRYRPPRLPRPRPRPGFCPRP here?
A: -0.266

Q: RRIRHRPPRLPRPRPRPFANPRP was tested. Which “shrunken log2 fold change” value did it give?
A: -0.483

Q: With RRIRTRPPRLPRPRPRPRGPPRP as the sequence, how does the “shrunken log2 fold change” value read?
A: 1.02

Q: For RRIRGRPPRLPRPRPRPCDDPRP, which “shrunken log2 fold change” value is on record?
A: 1.24

Q: Which “shrunken log2 fold change” value does the source give for RRIRCRPPRLPRPRPRPSKTPRP here?
A: -0.0722

Q: With RRIRYRPPRLPRPRPRPFPKPRP as the sequence, how does the “shrunken log2 fold change” value read?
A: -0.28

Q: RRIRIRPPRLPRPRPRPWSAPRP was tested. Which “shrunken log2 fold change” value did it give?
A: -0.649

Q: Which “shrunken log2 fold change” value does the source give for RRIRYRPPRLPRPRPRPVSPPRP here?
A: -0.449

Q: With RRIRGRPPRLPRPRPRPTQSPRP as the sequence, how does the “shrunken log2 fold change” value read?
A: 1.08

Q: With RRIRPRPPRLPRPRPRPLELPRP as the sequence, how does the “shrunken log2 fold change” value read?
A: 0.0125

Q: RRIRIRPPRLPRPRPRPMFTPRP was tested. Which “shrunken log2 fold change” value did it give?
A: -0.212

Q: For RRIRARPPRLPRPRPRPNNPPRP, which “shrunken log2 fold change” value is on record?
A: 0.0346

Q: For RRIRKRPPRLPRPRPRPKFQPRP, which “shrunken log2 fold change” value is on record?
A: 0.343

Q: RRIRCRPPRLPRPRPRPARTPRP was tested. Which “shrunken log2 fold change” value did it give?
A: 0.359

Q: RRIRMRPPRLPRPRPRPMRHPRP was tested. Which “shrunken log2 fold change” value did it give?
A: 0.452

Q: With RRIRVRPPRLPRPRPRPPKQPRP as the sequence, how does the “shrunken log2 fold change” value read?
A: 0.0106

Q: Which “shrunken log2 fold change” value does the source give for RRIRGRPPRLPRPRPRPRCFPRP here?
A: 0.698

Q: With RRIRTRPPRLPRPRPRPRREPRP as the sequence, how does the “shrunken log2 fold change” value read?
A: 0.351

Q: RRIRARPPRLPRPRPRPVYSPRP was tested. Which “shrunken log2 fold change” value did it give?
A: -0.312

Q: With RRIRARPPRLPRPRPRPMSTPRP as the sequence, how does the “shrunken log2 fold change” value read?
A: -0.0262

Q: Which “shrunken log2 fold change” value does the source give for RRIRYRPPRLPRPRPRPTSIPRP here?
A: -0.656

Q: RRIRQRPPRLPRPRPRPDYLPRP was tested. Which “shrunken log2 fold change” value did it give?
A: -0.212

Q: Which “shrunken log2 fold change” value does the source give for RRIRERPPRLPRPRPRPHILPRP here?
A: -0.245

Q: For RRIRRRPPRLPRPRPRPDSQPRP, which “shrunken log2 fold change” value is on record?
A: 0.157

Q: With RRIRGRPPRLPRPRPRPRIPPRP as the sequence, how does the “shrunken log2 fold change” value read?
A: 0.424

Q: With RRIRNRPPRLPRPRPRPWCNPRP as the sequence, how does the “shrunken log2 fold change” value read?
A: -0.507

Q: Which “shrunken log2 fold change” value does the source give for RRIRRRPPRLPRPRPRPAEFPRP here?
A: 0.0257

Q: RRIRIRPPRLPRPRPRPRYLPRP was tested. Which “shrunken log2 fold change” value did it give?
A: 0.0743

Q: RRIRMRPPRLPRPRPRPMQTPRP was tested. Which “shrunken log2 fold change” value did it give?
A: -0.00202

Q: Which “shrunken log2 fold change” value does the source give for RRIRKRPPRLPRPRPRPMDQPRP here?
A: 0.0935

Q: For RRIRLRPPRLPRPRPRPIRGPRP, which “shrunken log2 fold change” value is on record?
A: -0.0599

Q: For RRIRIRPPRLPRPRPRPMLPPRP, which “shrunken log2 fold change” value is on record?
A: -0.0228

Q: RRIRQRPPRLPRPRPRPYREPRP was tested. Which “shrunken log2 fold change” value did it give?
A: -0.0135

Q: RRIRKRPPRLPRPRPRPQTSPRP was tested. Which “shrunken log2 fold change” value did it give?
A: -0.122

Q: For RRIRLRPPRLPRPRPRPVEWPRP, which “shrunken log2 fold change” value is on record?
A: -0.228

Q: How did the “shrunken log2 fold change” value turn out when RRIRSRPPRLPRPRPRPMNHPRP was run?
A: -0.256

Q: With RRIRYRPPRLPRPRPRPQYQPRP as the sequence, how does the “shrunken log2 fold change” value read?
A: -0.103

Q: How did the “shrunken log2 fold change” value turn out when RRIRDRPPRLPRPRPRPNLVPRP was run?
A: -0.0615

Q: For RRIRARPPRLPRPRPRPPQLPRP, which “shrunken log2 fold change” value is on record?
A: 0.753

Q: For RRIRHRPPRLPRPRPRPIFGPRP, which “shrunken log2 fold change” value is on record?
A: -0.0177

Q: For RRIRIRPPRLPRPRPRPIFSPRP, which “shrunken log2 fold change” value is on record?
A: -0.181

Q: RRIRCRPPRLPRPRPRPSQEPRP was tested. Which “shrunken log2 fold change” value did it give?
A: 0.0585

Q: RRIRGRPPRLPRPRPRPCFRPRP was tested. Which “shrunken log2 fold change” value did it give?
A: 0.0644

Q: Which “shrunken log2 fold change” value does the source give for RRIRYRPPRLPRPRPRPHWIPRP here?
A: -0.398

Q: With RRIRLRPPRLPRPRPRPSYQPRP as the sequence, how does the “shrunken log2 fold change” value read?
A: -0.255

Q: For RRIRFRPPRLPRPRPRPTQVPRP, which “shrunken log2 fold change” value is on record?
A: -0.284

Q: With RRIRRRPPRLPRPRPRPVPFPRP as the sequence, how does the “shrunken log2 fold change” value read?
A: 0.0998

Q: Which “shrunken log2 fold change” value does the source give for RRIRGRPPRLPRPRPRPWMHPRP here?
A: -0.00858

Q: RRIRERPPRLPRPRPRPSAFPRP was tested. Which “shrunken log2 fold change” value did it give?
A: -0.089

Q: How did the “shrunken log2 fold change” value turn out when RRIRKRPPRLPRPRPRPRNTPRP was run?
A: -0.0381

Q: How did the “shrunken log2 fold change” value turn out when RRIRDRPPRLPRPRPRPFITPRP was run?
A: -0.118

Q: Which “shrunken log2 fold change” value does the source give for RRIRARPPRLPRPRPRPLINPRP here?
A: 0.0648

Q: RRIRARPPRLPRPRPRPWIRPRP was tested. Which “shrunken log2 fold change” value did it give?
A: -0.132

Q: How did the “shrunken log2 fold change” value turn out when RRIRGRPPRLPRPRPRPHPDPRP was run?
A: 0.502

Q: With RRIRSRPPRLPRPRPRPVRPPRP as the sequence, how does the “shrunken log2 fold change” value read?
A: 0.742

Q: How did the “shrunken log2 fold change” value turn out when RRIRKRPPRLPRPRPRPMMCPRP was run?
A: 0.0781

Q: How did the “shrunken log2 fold change” value turn out when RRIRPRPPRLPRPRPRPKGDPRP was run?
A: 0.022

Q: With RRIRMRPPRLPRPRPRPENMPRP as the sequence, how does the “shrunken log2 fold change” value read?
A: 0.0343

Q: With RRIRNRPPRLPRPRPRPRSKPRP as the sequence, how does the “shrunken log2 fold change” value read?
A: 0.0945

Q: With RRIRPRPPRLPRPRPRPDSLPRP as the sequence, how does the “shrunken log2 fold change” value read?
A: -0.257

Q: For RRIRFRPPRLPRPRPRPKYFPRP, which “shrunken log2 fold change” value is on record?
A: -0.758

Q: With RRIRTRPPRLPRPRPRPCVGPRP as the sequence, how does the “shrunken log2 fold change” value read?
A: -0.013

Q: With RRIRPRPPRLPRPRPRPQDCPRP as the sequence, how does the “shrunken log2 fold change” value read?
A: 0.104

Q: For RRIRHRPPRLPRPRPRPWGVPRP, which “shrunken log2 fold change” value is on record?
A: -0.141

Q: Which “shrunken log2 fold change” value does the source give for RRIRNRPPRLPRPRPRPHYRPRP here?
A: -0.0488

Q: Which “shrunken log2 fold change” value does the source give for RRIRMRPPRLPRPRPRPMPVPRP here?
A: 0.064

Q: RRIRIRPPRLPRPRPRPPGMPRP was tested. Which “shrunken log2 fold change” value did it give?
A: 0.238

Q: For RRIRPRPPRLPRPRPRPCNIPRP, which “shrunken log2 fold change” value is on record?
A: -0.554

Q: Which “shrunken log2 fold change” value does the source give for RRIRVRPPRLPRPRPRPTPQPRP here?
A: 0.279

Q: For RRIRRRPPRLPRPRPRPMGMPRP, which “shrunken log2 fold change” value is on record?
A: 0.747

Q: With RRIRGRPPRLPRPRPRPNMDPRP as the sequence, how does the “shrunken log2 fold change” value read?
A: 0.265

Q: With RRIRNRPPRLPRPRPRPVASPRP as the sequence, how does the “shrunken log2 fold change” value read?
A: -0.0843

Q: For RRIRERPPRLPRPRPRPFWWPRP, which “shrunken log2 fold change” value is on record?
A: 0.239

Q: With RRIRDRPPRLPRPRPRPKNQPRP as the sequence, how does the “shrunken log2 fold change” value read?
A: -0.076

Q: With RRIRQRPPRLPRPRPRPYPIPRP as the sequence, how does the “shrunken log2 fold change” value read?
A: -0.00931
